These results are taken from patent US20120095193A1 (published 2012).

Test [1] has as its target T1, human ADAMTS5 (human, UniProt Q9UNA0 262-622, limits assumed).
T1 construct: Octet and ELISA used 'recombinant human ADAMTS5'; also called recombinant human ADAMTS5; ADAMTS5 (R&D Systems 2198-AD)
T1 sequence: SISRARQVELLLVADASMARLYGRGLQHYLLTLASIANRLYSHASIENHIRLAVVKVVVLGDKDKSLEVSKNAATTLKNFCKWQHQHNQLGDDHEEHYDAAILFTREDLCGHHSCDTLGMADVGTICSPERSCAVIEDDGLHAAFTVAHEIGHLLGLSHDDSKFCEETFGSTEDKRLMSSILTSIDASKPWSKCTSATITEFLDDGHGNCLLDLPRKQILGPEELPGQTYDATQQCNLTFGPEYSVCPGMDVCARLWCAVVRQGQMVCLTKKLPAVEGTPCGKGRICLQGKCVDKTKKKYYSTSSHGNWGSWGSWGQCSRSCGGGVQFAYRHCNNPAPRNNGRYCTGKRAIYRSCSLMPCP
As to the kind of experiment: Octet QK, purified mAb.

The target in test [2] is T1, human ADAMTS5. Nature of the test: Biacore, mAb from culture supernatant captured on anti-human IgG, ADAMTS5 (R&D 2198-AD) at 64 nM, 1:1 fit. On the procedure:
(§1) Anti-human IgG (Biacore™, BR-1008-39) was immobilized on a CM5 chip by primary amine coupling. This surface was then used to capture the humanized antibodies, ADAMTS5 (R&D Systems 2198-AD) was then passed over the captured antibody at a single concentration of 64 nM, regeneration was carried out using 100 mM phosphoric acid followed by 3M MgCl₂. The binding curves were double referenced with buffer injection (i.e. 0 nM) and the data was fitted to the T100 analysis software using the 1:1 model. The run was carried out at 25° C., using HBS-EP as the running buffer. All antibodies were captured from tissue culture supernatants unless specified.

Test [3] concerns the target T1, human ADAMTS5. Nature of the test: Biacore, mAb down, no avidity.
Test [4] deals with T1, human ADAMTS5. As to the kind of experiment: Octet QK, antigen down, incl avidity.
For test [5], the target named is T1, human ADAMTS5. Nature of the test: Biacore, purified mAb captured on anti-human IgG, ADAMTS5 (R&D 2198-AD) at 64 nM, 1:1 fit. On the procedure: as §1
The target in test [6] is T1, human ADAMTS5. Nature of the test: cell-based or functional assay.
Test [7] concerns the target T1, human ADAMTS5. Nature of the test: Octet QK, purified murine mAb.
Test [8] deals with T2, Human MMP1 (human, UniProt P03956 20-469, limits assumed).
T2 sequence (looked up): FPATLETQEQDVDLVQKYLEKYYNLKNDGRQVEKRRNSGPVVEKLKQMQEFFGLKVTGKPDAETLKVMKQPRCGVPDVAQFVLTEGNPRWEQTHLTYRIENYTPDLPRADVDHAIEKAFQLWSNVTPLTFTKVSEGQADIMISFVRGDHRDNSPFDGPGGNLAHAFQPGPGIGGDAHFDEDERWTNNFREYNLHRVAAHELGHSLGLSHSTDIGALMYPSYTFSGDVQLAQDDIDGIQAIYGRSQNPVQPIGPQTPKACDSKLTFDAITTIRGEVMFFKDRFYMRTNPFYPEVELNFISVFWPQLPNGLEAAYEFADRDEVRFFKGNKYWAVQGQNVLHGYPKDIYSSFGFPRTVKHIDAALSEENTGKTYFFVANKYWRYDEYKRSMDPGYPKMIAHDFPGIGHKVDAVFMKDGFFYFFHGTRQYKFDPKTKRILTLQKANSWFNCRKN
Nature of the test: celTRF and Octet QK cross-reactivity.

The target of test [9] is Human MMP13 (human, UniProt P45452 20-471, limits assumed). Nature of the test: celTRF and Octet QK cross-reactivity.
Test [10] addresses T3, Human ADAMTS1 (human, UniProt Q9UHI8 253-967, limits assumed).
T3 sequence (looked up): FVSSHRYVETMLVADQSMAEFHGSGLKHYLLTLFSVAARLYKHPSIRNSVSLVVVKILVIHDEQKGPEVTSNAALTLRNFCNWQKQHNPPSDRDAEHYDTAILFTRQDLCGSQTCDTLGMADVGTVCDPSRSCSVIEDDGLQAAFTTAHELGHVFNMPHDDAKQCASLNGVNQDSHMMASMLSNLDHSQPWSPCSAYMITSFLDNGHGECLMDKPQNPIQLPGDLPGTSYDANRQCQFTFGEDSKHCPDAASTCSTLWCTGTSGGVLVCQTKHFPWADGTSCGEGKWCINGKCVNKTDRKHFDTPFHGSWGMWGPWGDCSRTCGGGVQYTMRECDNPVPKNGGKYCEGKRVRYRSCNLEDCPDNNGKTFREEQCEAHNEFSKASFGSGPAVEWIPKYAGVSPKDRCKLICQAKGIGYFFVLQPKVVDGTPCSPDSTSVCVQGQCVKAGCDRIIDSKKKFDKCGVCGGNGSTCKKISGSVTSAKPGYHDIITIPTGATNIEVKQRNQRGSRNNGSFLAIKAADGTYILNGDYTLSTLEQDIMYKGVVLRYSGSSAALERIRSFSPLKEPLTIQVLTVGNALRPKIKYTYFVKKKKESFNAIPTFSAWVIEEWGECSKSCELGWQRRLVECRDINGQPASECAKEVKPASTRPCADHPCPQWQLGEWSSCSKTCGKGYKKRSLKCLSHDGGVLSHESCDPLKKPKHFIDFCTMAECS
Nature of the test: celTRF and Octet QK cross-reactivity.

Test [11] has as its target T4, Human ADAMTS4 (human, UniProt O75173 213-685, limits assumed).
T4 construct: also called aggrecanase-1
T4 sequence: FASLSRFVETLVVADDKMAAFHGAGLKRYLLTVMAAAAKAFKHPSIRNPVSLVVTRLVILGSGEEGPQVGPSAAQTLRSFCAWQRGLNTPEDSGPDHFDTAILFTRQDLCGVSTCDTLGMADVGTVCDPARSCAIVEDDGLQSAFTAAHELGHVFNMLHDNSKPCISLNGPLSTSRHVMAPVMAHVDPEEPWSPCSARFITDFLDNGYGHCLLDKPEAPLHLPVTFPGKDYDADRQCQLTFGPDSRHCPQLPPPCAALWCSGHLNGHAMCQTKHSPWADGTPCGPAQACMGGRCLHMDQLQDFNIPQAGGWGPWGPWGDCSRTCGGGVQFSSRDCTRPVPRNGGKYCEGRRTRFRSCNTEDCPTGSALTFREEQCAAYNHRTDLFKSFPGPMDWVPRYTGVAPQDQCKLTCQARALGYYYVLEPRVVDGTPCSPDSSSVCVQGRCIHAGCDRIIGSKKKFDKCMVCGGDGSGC
Nature of the test: celTRF and Octet QK cross-reactivity.

The target in test [12] is Human MMP3 (human, UniProt P08254 18-477, limits assumed). Nature of the test: celTRF and Octet QK cross-reactivity.
Human MMP3, sequence (P08254 18-477 limits assumed): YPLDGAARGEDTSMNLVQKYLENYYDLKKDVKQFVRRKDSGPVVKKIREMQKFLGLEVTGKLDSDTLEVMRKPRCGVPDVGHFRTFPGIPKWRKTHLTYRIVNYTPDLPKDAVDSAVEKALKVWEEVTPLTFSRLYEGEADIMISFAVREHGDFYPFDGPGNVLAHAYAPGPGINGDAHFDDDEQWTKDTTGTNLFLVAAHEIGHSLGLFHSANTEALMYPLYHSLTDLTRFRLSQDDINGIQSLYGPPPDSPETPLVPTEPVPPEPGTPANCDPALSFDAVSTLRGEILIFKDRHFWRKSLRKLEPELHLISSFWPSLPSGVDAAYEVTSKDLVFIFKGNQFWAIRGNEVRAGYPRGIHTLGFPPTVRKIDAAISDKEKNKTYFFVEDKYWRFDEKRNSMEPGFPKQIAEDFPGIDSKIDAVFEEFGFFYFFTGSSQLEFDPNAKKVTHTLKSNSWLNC
Test [13] addresses T5, Human ADAMTS13 (human, UniProt Q76LX8 75-685, limits assumed).
T5 sequence (looked up): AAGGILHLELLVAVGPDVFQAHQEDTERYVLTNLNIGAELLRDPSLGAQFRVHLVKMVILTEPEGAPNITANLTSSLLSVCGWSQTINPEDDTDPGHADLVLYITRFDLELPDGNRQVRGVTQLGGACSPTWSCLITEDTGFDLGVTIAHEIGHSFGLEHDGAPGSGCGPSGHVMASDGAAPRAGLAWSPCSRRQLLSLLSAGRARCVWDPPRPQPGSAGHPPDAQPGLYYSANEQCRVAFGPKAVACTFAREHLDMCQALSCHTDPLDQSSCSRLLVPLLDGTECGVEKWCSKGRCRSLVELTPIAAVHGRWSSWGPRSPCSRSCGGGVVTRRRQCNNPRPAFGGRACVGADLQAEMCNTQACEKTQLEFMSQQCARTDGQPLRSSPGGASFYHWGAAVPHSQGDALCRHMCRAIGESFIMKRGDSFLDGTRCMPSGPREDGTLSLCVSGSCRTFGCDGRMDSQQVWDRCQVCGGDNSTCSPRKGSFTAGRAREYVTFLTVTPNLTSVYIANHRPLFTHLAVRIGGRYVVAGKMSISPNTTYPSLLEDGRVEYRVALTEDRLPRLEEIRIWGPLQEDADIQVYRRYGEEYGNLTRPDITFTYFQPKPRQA
As to the kind of experiment: celTRF and Octet QK cross-reactivity.

The target in test [14] is Human MMP9 (human, UniProt P14780 20-707, limits assumed). As to the kind of experiment: celTRF and Octet QK cross-reactivity.
Human MMP9, sequence (P14780 20-707 limits assumed): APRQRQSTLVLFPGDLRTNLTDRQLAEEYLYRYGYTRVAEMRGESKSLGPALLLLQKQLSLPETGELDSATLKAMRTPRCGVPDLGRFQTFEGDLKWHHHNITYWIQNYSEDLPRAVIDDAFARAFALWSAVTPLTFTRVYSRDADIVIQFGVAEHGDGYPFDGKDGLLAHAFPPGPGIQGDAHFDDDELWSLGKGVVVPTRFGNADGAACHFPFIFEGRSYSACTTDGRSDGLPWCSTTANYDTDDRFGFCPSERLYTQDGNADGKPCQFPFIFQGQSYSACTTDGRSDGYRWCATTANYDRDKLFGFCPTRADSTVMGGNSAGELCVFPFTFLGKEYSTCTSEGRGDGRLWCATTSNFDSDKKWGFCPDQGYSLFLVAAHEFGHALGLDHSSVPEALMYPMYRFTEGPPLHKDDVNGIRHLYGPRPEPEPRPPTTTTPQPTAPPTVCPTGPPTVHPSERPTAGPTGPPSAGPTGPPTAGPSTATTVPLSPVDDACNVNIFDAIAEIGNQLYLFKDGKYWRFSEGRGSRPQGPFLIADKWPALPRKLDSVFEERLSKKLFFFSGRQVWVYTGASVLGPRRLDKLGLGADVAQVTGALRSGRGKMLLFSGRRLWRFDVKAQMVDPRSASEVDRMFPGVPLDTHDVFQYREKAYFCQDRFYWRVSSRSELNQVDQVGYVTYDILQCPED

B1: BPC1622 (antibody, human IgG1, kappa, V domains shown)
VH: EVKLEESGGGLVQPGGSMKLSCAASGFTSSDAWMDWVRQSPEKGLEWVAEIRNKANNHARHYAESVKGRFTISRDDSKSSVYLQMNSLRAEDSGIYYCTRTYYYGSSYGYCDVWGTGTLVTVSS
VL: DIQMTQSPASLSASVGETVTITCRTSENIYSYLAWYQQKQGKSPQLLVYNAKTLAEGVPSRFSGSGSGTQFSLKINSLQPEDFGSYSCQHHYGTPWTFGGGTKLEIKR
notes: Chimeric: murine variable domains on human gamma 1 and kappa constant regions; also called 7B4 Chimera; Chimeric 7B4.1E11
Consider B1, for which the Kd in test [1] was 0.345 nM; in [2] it was 1.12 nM; in test [3] it was 0.473 nM; in test [4] it was 0.26 nM; in [5], 1.21 nM. The koff in test [2] stood at 0.0013 s⁻¹; in [5] it was 0.00106 s⁻¹. The kon in [2] stood at 1.16e+06 M⁻¹ s⁻¹; in [5] it was 872000 M⁻¹ s⁻¹.

B2: 12F4.1H7 (antibody, IgG2, V domains shown)
VH: EVKLEESGGGLVQPGGSMKLSCTASGFTFSDAWMDWVRQSPEKGLEWVAEIRHKANDHAIFYDESVKGRFTISRDDSKNIVYLQMNSLRPEDTGIYYCTSPFAYWGQGTLVTVSA
VL: DIVMTQSQKFMSVTVGDRVSITCKASQSVGTTIVWYQQKPGQSPKLLIYSASNRHTGVPDRFTGSGSGTDFILTINNVQSEDLADYFCQQYTSYPFTFGSGTKLEIKR
notes: also called Murine 12F4.1H7
Regarding B2, the “Aggrecan Substrate Cleavage Neutralization IC50” value in [6] came out at 0.06 nM. Besides, the Kd in test [1] worked out at 0.0685 nM; in test [3] it was 0.067 nM; in test [7], 0.436 nM; in test [4], 0.0356 nM. In addition, the binding result in test [8], in test [9], in test [10], in test [11], in test [12] and in test [13] was “no binding” each time. In test [14], the binding result is given as “no binding”.

B3: BPC1623 (antibody, human IgG1, kappa, V domains shown)
VH: EVKLEESGGGLVQPGGSMKLSCTASGFTFSDAWMDWVRQSPEKGLEWVAEIRHKANDHAIFYDESVKGRFTISRDDSKNIVYLQMNSLRPEDTGIYYCTSPFAYWGQGTLVTVSS
VL: DIVMTQSQKFMSVTVGDRVSITCKASQSVGTTIVWYQQKPGQSPKLLIYSASNRHTGVPDRFTGSGSGTDFILTINNVQSEDLADYFCQQYTSYPFTFGSGTKLEIKR
notes: Chimeric: murine variable domains on human gamma 1 and kappa constant regions; also called 12F4 Chimera; Chimeric 12F4.1H7
Consider B3, for which the Kd in test [1] stood at 0.0799 nM; in test [2], 0.0774 nM; in test [3], 0.051 nM; in test [4], 0.0431 nM; in test [5], 0.0727 nM. The off-rate constant (koff) in test [2] amounted to 4.82e-05 s⁻¹; in test [5] it was 4.7e-05 s⁻¹. Also, the kon came out at 623000 M⁻¹ s⁻¹ in test [2] and 646000 M⁻¹ s⁻¹ in test [5].

B4: 5F10.1H6 (antibody, V domains shown)
VH: EVKLEESGGGLVQPGGSMKLSCAASGFTFSDAWMDWVRQSPEKGLEWVAEIRHKANDHAIFYDESVKGRFTISRDDSKSIVYLQMNSLRPEDTGIYYCTSPFAYWGQGTLVTVSA
VL: DIVMTQSQRFMSVTVGDRVSITCKASQSVGTTIVWYQQKPGQSPKLLIYSASTRYTGVPDRFTGGGSGTDFILTINNVQSEDLADYFCQQYSSYPFTFGSGTKLEIKR
notes: Murine monoclonal antibody from a hybridoma
Consider B4, for which the “Aggrecan Substrate Cleavage Neutralization IC50” value in test [6] stood at 0.05 nM. Also, the Kd in test [7] was 0.126 nM. For the same molecule, the binding result in test [8], in [9], in test [10], in [11], in test [12] and in test [13] was “no binding” throughout. Moreover, the binding result in [14] is on record as “no binding”.

B5: 3A12.1D7 (antibody, V domains shown)
VH: EVKFEESGGGLVQPGGSMKLSCAASGFIFSDAWMDWVRQSPEKGLEWVAEIRHKANDYAIFYDESVKGRFTISRDDSKSIVYLQMNNLRPEDTGIYYCTSPFAYWGQGTLVTVSA
VL: DIVMTQSQKFMSVTVGDRVSITCKASQSVGTTIVWYQQKPGQSPKLLIYSASNRHTGVPDRFTGSGSGTDFILTISNVQSEDLADYFCQQYSSYPFTFGSGTKLEIKR
notes: as for B4
Take B5: the “Aggrecan Substrate Cleavage Neutralization IC50” value in test [6] was determined as 0.769 nM. Moreover, the Kd in test [7] was determined as 0.0824 nM. Also, the binding result in [8], in test [9], in test [10], in test [11], in [12] and in [13] was “no binding” each time. In addition, the binding result in [14] was “no binding”.
